Response data for four substances are collected here from paper PMC5156306.

The experiment addresses WT CCR5 (5555), HA-tagged, on transfected HEK293T cells (UniProt P51681). In words: competition assay, flow cytometry on cells. The following applies: DyLight488-LukE 595 nM, LukD DN 565 nM, read off a plot. In general terms: Flow cytometry measures light scatter and fluorescence of single cells or particles in a stream.
[1] abbreviates: 74.5 nM unlabeled LukE variant, parent: est. 13.
[2] abbreviates: 149 nM unlabeled LukE variant, parent: est. 11.
Where [3] appears, read: 298 nM unlabeled LukE variant, parent: est. 10.
The mark [4] stands for this setting: 596 nM unlabeled LukE variant, parent: est. 9.2.

With “WT LukE LukE/LukS^DR1 (DR1, residues 57 to 75, replaced by the corresponding region of LukS-PV)”, the response reads like this: under setting [1], 19 MFI; under setting [2], 18 MFI; under setting [3], 15 MFI; under setting [4], 14 MFI.

Turning to “WT LukE LukE/LukS^DR2 (DR2, residues 140 to 150, replaced by the corresponding region of LukS-PV)”, the response reads like this: under setting [1], 13 MFI; under setting [2], 11 MFI; under setting [3], 9.8 MFI; under setting [4], 9 MFI.

For “WT LukE LukE/LukS^DR3 (DR3, residues 164 to 178, replaced by the corresponding region of LukS-PV)”, the response is, setting by setting: under setting [1], 15 MFI; under setting [2], 12 MFI; under setting [3], 11 MFI; under setting [4], 9.7 MFI.

For “WT LukE LukE/LukS^DR4 (DR4, residues 182 to 196, replaced by the corresponding region of LukS-PV)”, the response came to 12 MFI under setting [1], 9.9 MFI under setting [2], 9.3 MFI under setting [3] and 8.3 MFI under setting [4].
